Measured values taken from the RNAGym collection of RNA variant scans (doi:10.1093/molbev/msab373).

B1: Azoarcus group I ribozyme (parent)
chain: GUGCCUUGCGCCGGGAAACCACGCAAGGGAUGGUGUCAAAUUCGGCGAAACCUAAGCGCCCGCCCGGGCGUAUGGCAACGCCGAGCCAAGCUUCGGCGCCUGCGCCGAUGAAGGUGUAGAGACUAGACGGCACCCACCUAAGGCAAACGCUAUGGUGAAGGCAUAGUCCAGGGAGUGGCGAAAGUCACACAAACCGG

Variants of: B1
Test: reverse-splicing fitness (ratio to wild type); higher = more active; in vitro selection; Mg2+ level not given
Summary of the method: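 An in vitro group I ribozyme library with randomized positions was T7-transcribed and gel-purified. In triplicate, 10 pmol RNA in EPPS pH 7.5 was reacted with 50 pmoles of a 30-nt RNA substrate for 1 h at 37 °C across several added MgCl2 levels (1–48 mM), then stopped with EDTA. Products were reverse transcribed from a substrate-complementary primer, PCR-amplified and sequenced (HiSeq 4000). Fitness is a variant's read proportion after selection over that before, normalised to wild type.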

| Variant | reverse-splicing fitness |
| --- | --- |
| GUGCCUUGCGCCGGGAAACCACGCAAGGGAUGGUGUCAAAUUCGGCGAAACCUAAGCGCCCGCCCGGGCGUAUGGCAACGCAGAGCCAAGCUUCGGCGCCUGCGCCGAUGUAGGUGUAGGGACUAGACGGCACCCACCUAAGGCUAACGCUAUGGUGAAGGCAUAGUCUAGGGAGCGGCGAAAGUCACACAAACCGG [C82A A111U A120G A145U C169U U176C] | 0.0159 |
| GUGCCUUGCGCCGGGAAACCACGCAAGGGAUGGUGUCAAAUUCGGCGAAACCUAAGCGCCCGCCCGGGCGUAUGGCAACGCAGAGCCAAGCUUCGGCGCCUGCGCCGAUGUAGGUGUAGGGACUAGACGGCACCCACCUAAGGCUAACGCUAUGGUGAAGGCAUAGUCUAGGGAGGGGCGAAAGUCACACAAACCGG [C82A A111U A120G A145U C169U U176G] | 0.0047 |
| GUGCCUUGCGCCGGGAAACCACGCAAGGGAUGGUGUCAAAUUCGGCGAAACCUAAGCGCCCGCCCGGGCGUAUGGCAACGCAGAGCCAAGCUUCGGCGCCUGCGCCGAUGUAGGUGUAGGGACUAGACGGCACCCACCUAAGGCUAACGCUAUGGUGAAGGCAUAGUCUAGGGAGAGGCGAAAGUCACACAAACCGG [C82A A111U A120G A145U C169U U176A] | 0.0196 |
| GUGCCUUGCGCCGGGAAACCACGCAAGGGAUGGUGUCAAAUUCGGCGAAACCUAAGCGCCCGCCCGGGCGUAUGGCAACGCAGAGCCAAGCUUCGGCGCCUGCGCCGAUGUAGGUGUAGGGACUAGACGGCACCCACCUAAGGCUAACGCUAUGGUGAAGGCAUAGUCAAGGGAGGGGCGAAAGUCACACAAACCGG [C82A A111U A120G A145U C169A U176G] | 0.00477 |
| GUGCCUUGCGCCGGGAAACCACGCAAGGGAUGGUGUCAAAUUCGGCGAAACCUAAGCGCCCGCCCGGGCGUAUGGCAACGCAGAGCCAAGCUUCGGCGCCUGCGCCGAUGUAGGUGUAGGGACUAGACGGCACCCACCUAAGGCUAACGCUAUGGUGAAGGCAUAGUCAAGGGAGCGGCGAAAGUCACACAAACCGG [C82A A111U A120G A145U C169A U176C] | 0.0107 |
| GUGCCUUGCGCCGGGAAACCACGCAAGGGAUGGUGUCAAAUUCGGCGAAACCUAAGCGCCCGCCCGGGCGUAUGGCAACGCAGAGCCAAGCUUCGGCGCCUGCGCCGAUGUAGGUGUAGGGACUAGACGGCACCCACCUAAGGCUAACGCUAUGGUGAAGGCAUAGUCGAGGGAGCGGCGAAAGUCACACAAACCGG [C82A A111U A120G A145U C169G U176C] | 0.014 |
| GUGCCUUGCGCCGGGAAACCACGCAAGGGAUGGUGUCAAAUUCGGCGAAACCUAAGCGCCCGCCCGGGCGUAUGGCAACGCAGAGCCAAGCUUCGGCGCCUGCGCCGAUGUAGGUGUAGGGACUAGACGGCACCCACCUAAGGCUAACGCUAUGGUGAAGGCAUAGUCGAGGGAGGGGCGAAAGUCACACAAACCGG [C82A A111U A120G A145U C169G U176G] | 0.00437 |
| GUGCCUUGCGCCGGGAAACCACGCAAGGGAUGGUGUCAAAUUCGGCGAAACCUAAGCGCCCGCCCGGGCGUAUGGCAACGCAGAGCCAAGCUUCGGCGCCUGCGCCGAUGUAGGUGUAGGGACUAGACGGCACCCACCUAAGGCUAACGCUAUGGUGAAGGCAUAGUCGAGGGAGAGGCGAAAGUCACACAAACCGG [C82A A111U A120G A145U C169G U176A] | 0.0119 |
| GUGCCUUGCGCCGGGAAACCACGCAAGGGAUGGUGUCAAAUUCGGCGAAACCUAAGCGCCCGCCCGGGCGUAUGGCAACGCAGAGCCAAGCUUCGGCGCCUGCGCCGAUGUAGGUGUAGGGACUAGACGGCACCCACCUAAGGCUAACGCUAUGGUGAAGGCAUAGUCCAGGGAGGGGCGAAAGUCACACAAACCGG [C82A A111U A120G A145U U176G] | 0.00522 |
| GUGCCUUGCGCCGGGAAACCACGCAAGGGAUGGUGUCAAAUUCGGCGAAACCUAAGCGCCCGCCCGGGCGUAUGGCAACGCAGAGCCAAGCUUCGGCGCCUGCGCCGAUGUAGGUGUAGGGACUAGACGGCACCCACCUAAGGCUAACGCUAUGGUGAAGGCAUAGUCCAGGGAGAGGCGAAAGUCACACAAACCGG [C82A A111U A120G A145U U176A] | 0.0132 |
| GUGCCUUGCGCCGGGAAACCACGCAAGGGAUGGUGUCAAAUUCGGCGAAACCUAAGCGCCCGCCCGGGCGUAUGGCAACGCAGAGCCAAGCUUCGGCGCCUGCGCCGAUGUAGGUGUAGGGACUAGACGGCACCCACCUAAGGCUAACGCUAUGGUGAAGGCAUAGUCCAGGGAGCGGCGAAAGUCACACAAACCGG [C82A A111U A120G A145U U176C] | 0.0145 |
| GUGCCUUGCGCCGGGAAACCACGCAAGGGAUGGUGUCAAAUUCGGCGAAACCUAAGCGCCCGCCCGGGCGUAUGGCAACGCAGAGCCAAGCUUCGGCGCCUGCGCCGAUGUAGGUGUAGGGACUAGACGGCACCCACCUAAGGCUAACGCUAUGGUGAAGGCAUAGUCUAGGGAGUGGCGAAAGUCACACAAACCGG [C82A A111U A120G A145U C169U] | 0.00974 |
| GUGCCUUGCGCCGGGAAACCACGCAAGGGAUGGUGUCAAAUUCGGCGAAACCUAAGCGCCCGCCCGGGCGUAUGGCAACGCAGAGCCAAGCUUCGGCGCCUGCGCCGAUGUAGGUGUAGGGACUAGACGGCACCCACCUAAGGCUAACGCUAUGGUGAAGGCAUAGUCGAGGGAGUGGCGAAAGUCACACAAACCGG [C82A A111U A120G A145U C169G] | 0.00975 |
| GUGCCUUGCGCCGGGAAACCACGCAAGGGAUGGUGUCAAAUUCGGCGAAACCUAAGCGCCCGCCCGGGCGUAUGGCAACGCAGAGCCAAGCUUCGGCGCCUGCGCCGAUGUAGGUGUAGGGACUAGACGGCACCCACCUAAGGCAAACGAUAUGGUGAAGGCAUAGUCCAGGGAGUGGCGAAAGUCACACAAACCGG [C82A A111U A120G C150A] | 0.0106 |
| GUGCCUUGCGCCGGGAAACCACGCAAGGGAUGGUGUCAAAUUCGGCGAAACCUAAGCGCCCGCCCGGGCGUAUGGCAACGCAGAGCCAAGCUUCGGCGCCUGCGCCGAUGUAGGUGUAGGGACUAGACGGCACCCACCUAAGGCAAACGAUAUGGUGAAGGCAUAGUCAAGGGAGUGGCGAAAGUCACACAAACCGG [C82A A111U A120G C150A C169A] | 0.0108 |
